T1: Human RAD54 (purified) (human, UniProt Q92698 1-747)
T1 construct: RAD54, human cDNA inserted into pFastBac HTc; purification details are in the Supplementary Methods; also called purified RAD54; source: recombinant human RAD54 baculovirus (pFastBac HTc vector), purified; details in Supplementary Methods
T1 sequence (looked up): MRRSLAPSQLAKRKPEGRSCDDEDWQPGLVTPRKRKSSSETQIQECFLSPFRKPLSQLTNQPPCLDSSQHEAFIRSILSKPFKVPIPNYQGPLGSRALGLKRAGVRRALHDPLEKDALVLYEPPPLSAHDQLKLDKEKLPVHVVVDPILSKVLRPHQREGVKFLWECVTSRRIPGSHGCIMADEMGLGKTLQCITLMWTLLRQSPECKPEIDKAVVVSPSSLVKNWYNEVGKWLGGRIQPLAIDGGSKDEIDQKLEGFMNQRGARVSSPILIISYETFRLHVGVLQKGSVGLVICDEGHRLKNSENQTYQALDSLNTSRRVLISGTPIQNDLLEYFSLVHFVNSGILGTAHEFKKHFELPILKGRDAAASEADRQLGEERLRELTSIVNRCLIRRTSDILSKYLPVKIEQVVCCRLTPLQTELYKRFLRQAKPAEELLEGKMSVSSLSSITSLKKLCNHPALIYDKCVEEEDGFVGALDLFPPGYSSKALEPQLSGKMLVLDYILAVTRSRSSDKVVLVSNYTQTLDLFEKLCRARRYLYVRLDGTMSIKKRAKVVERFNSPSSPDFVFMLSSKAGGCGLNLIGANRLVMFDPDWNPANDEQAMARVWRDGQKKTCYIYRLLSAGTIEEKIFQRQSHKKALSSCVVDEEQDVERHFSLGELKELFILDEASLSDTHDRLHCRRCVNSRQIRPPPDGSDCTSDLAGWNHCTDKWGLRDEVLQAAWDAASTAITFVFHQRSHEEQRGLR


Assays:
Human RAD54 (purified) [1] = target: T1, Human RAD54 (purified); assay: pull-down; Nap1-conjugated beads with purified RAD51 alone or purified RAD54 alone; SDS-PAGE with Coomassie Brilliant Blue staining; details: both partners purified
Human RAD54 (purified) [2] = target: T1, Human RAD54 (purified); assay: native gel or EMSA; Nap1 or mutant incubated with the indicated amounts of RAD54; 5% native PAGE with Coomassie Brilliant Blue staining; RAD54 alone does not enter the gel; details: both partners purified

binding result (Human RAD54 (purified) [1]) | binding result (Human RAD54 (purified) [2]) | Binder
binds |  | Human Nap1 (purified, wild type) (natural protein, UniProt P55209 1-391, looked up, Nap1 (histone chaperone, nucleosome assembly protein 1), human; also called purified Nap1; wild type Nap1) MADIDNKEQSELDQDLDDVEEVEEEETGEETKLKARQLTVQMMQNPQILAALQERLDGLVETPTGYIESLPRVVKRRVNALKNLQVKCAQIEAKFYEEVHDLERKYAVLYQPLFDKRFEIINAIYEPTEEECEWKPDEEDEISEELKEKAKIEDEKKDEEKEDPKGIPEFWLTVFKNVDLLSDMVQEHDEPILKHLKDIKVKFSDAGQPMSFVLEFHFEPNEYFTNEVLTKTYRMRSEPDDSDPFSFDGPEIMGCTGCQIDWKKGKNVTLKTIKKKQKHKGRGTVRTVTKTVSNDSFFNFFAPPEVPESGDLDDDAEAILAADFEIGHFLRERIIPRSVLYFTGEAIEDDDDDYDEEGEEADEEGEEEGDEENDPDYDPKKDQNPAECKQQ
 | binds | Nap1(E215,219,222,227K) mutant (natural protein, human, UniProt P55209 1-391, looked up, Nap1, human, with Glu215, Glu219, Glu222 and Glu227 replaced by Lys; A trace amount of a read-through product was present as a contaminant in the purified fraction; also called Nap1(E215K,E219K,E222K,E227K) mutant; Nap1 mutant) MADIDNKEQSELDQDLDDVEEVEEEETGEETKLKARQLTVQMMQNPQILAALQERLDGLVETPTGYIESLPRVVKRRVNALKNLQVKCAQIEAKFYEEVHDLERKYAVLYQPLFDKRFEIINAIYEPTEEECEWKPDEEDEISEELKEKAKIEDEKKDEEKEDPKGIPEFWLTVFKNVDLLSDMVQEHDEPILKHLKDIKVKFSDAGQPMSFVLKFHFKPNKYFTNKVLTKTYRMRSEPDDSDPFSFDGPEIMGCTGCQIDWKKGKNVTLKTIKKKQKHKGRGTVRTVTKTVSNDSFFNFFAPPEVPESGDLDDDAEAILAADFEIGHFLRERIIPRSVLYFTGEAIEDDDDDYDEEGEEADEEGEEEGDEENDPDYDPKKDQNPAECKQQ

Reference: publication PMC4010968, “Nap1 stimulates homologous recombination by RAD51 and RAD54 in higher-ordered chromatin containing histone H1” (Scientific Reports, 2014)
